Laboratory results published in PMC5026484 (eLife, 2016).

Experiments:
[1] = target: the molecule itself; experiment: SEC; analytical size exclusion chromatography of the bMERB domain alone (112.5 µM); apparent size from the retention
[2] = target: T1, Rab8a, full length, loaded with GppNHp (human, UniProt P61006 1-207); experiment: SEC; analytical size exclusion chromatography, Superdex S75 10/300 GL; 130 µM Rab:GppNHp + 112.5 µM (113 µM) bMERB domain; 20 mM Hepes pH 7.5, 50 mM NaCl, 2 mM DTE, 2 mM MgCl2; details: both partners purified
T1 construct: Rab8a, human; called Rab8 in the results and Rab8aFl in the crystallisation methods; also called Rab8aFl; source: expressed and purified as described previously (Bleimling et al., 2009), loaded with GppNHp, gel filtration
T1 sequence (looked up): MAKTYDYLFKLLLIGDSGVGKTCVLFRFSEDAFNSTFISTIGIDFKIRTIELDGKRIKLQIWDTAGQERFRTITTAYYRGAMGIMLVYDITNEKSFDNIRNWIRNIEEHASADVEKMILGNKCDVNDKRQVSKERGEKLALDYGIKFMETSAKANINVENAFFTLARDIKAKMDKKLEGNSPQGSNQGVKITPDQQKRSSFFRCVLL

[3] = target: T2, Rab10, full length, loaded with GppNHp (human, UniProt P61026 1-200); experiment: as above; details: both partners purified
T2 construct: Rab10, human; Rab10Fl in the crystallisation methods; also called Rab10Fl; source: expressed and purified as described previously (Bleimling et al., 2009), loaded with GppNHp, gel filtration
T2 sequence (looked up): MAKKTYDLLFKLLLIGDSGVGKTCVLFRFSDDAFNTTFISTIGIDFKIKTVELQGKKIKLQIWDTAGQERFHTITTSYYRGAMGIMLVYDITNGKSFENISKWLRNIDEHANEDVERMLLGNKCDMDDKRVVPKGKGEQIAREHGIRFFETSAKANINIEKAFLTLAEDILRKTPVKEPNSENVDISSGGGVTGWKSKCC

[4] = target: T1, Rab8a, full length, loaded with GppNHp; experiment: ITC; iTC200, 25°C; 400 µM Rab titrated into 20–40 µM bMERB domain in the cell; 20 mM Hepes pH 7.5, 50 mM NaCl, 2 mM MgCl2, 1 mM TCEP; details: both partners purified
[5] = target: T3, Rab13, loaded with GppNHp (UniProt P51153 1-203); experiment: as above; details: both partners purified
T3 construct: Rab13; also called Rab13:GppNHp; source: expressed and purified as described previously (Bleimling et al., 2009), loaded with GppNHp, gel filtration
T3 sequence (looked up): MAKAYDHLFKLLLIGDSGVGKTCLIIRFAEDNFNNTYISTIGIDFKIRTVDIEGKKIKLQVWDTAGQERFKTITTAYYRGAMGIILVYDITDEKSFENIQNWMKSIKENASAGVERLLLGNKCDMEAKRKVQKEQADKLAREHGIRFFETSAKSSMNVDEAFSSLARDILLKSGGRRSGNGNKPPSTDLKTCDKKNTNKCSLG

[6] = target: T1, Rab8a, full length, loaded with GppNHp; experiment: as above; details: both partners purified; remark: listed apart in the source
[7] = target: T2, Rab10, full length, loaded with GppNHp; experiment: as above; details: both partners purified
[8] = target: T3, Rab13, loaded with GppNHp; experiment: as above; details: both partners purified; remark: listed apart in the source
[9] = target: T4, Rab15, loaded with GppNHp (UniProt P59190 1-212); experiment: as above; details: both partners purified
T4 construct: Rab15; source: expressed and purified as described previously (Bleimling et al., 2009), loaded with GppNHp, gel filtration
T4 sequence (looked up): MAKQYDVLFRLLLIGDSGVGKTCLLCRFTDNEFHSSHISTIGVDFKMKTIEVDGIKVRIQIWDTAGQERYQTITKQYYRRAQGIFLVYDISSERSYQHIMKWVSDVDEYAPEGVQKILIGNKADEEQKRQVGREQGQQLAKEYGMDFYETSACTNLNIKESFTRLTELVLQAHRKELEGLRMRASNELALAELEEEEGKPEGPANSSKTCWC

B1: bMERB domain (Rab binding domain) of Mical-3, residues 1841-1990 (domain or fragment, human, UniProt Q7RTP6 1841-1990, looked up)
chain: KQEELKRLHRAQIIQRQLQQVEERQRRLEERGVAVEKALRGEAGMGKKDDPKLMQEWFKLVQEKNAMVRYESELMIFARELELEDRQSRLQQELRERMAVEDHLKTEEELSEEKQILNEMLEVVEQRDSLVALLEEQRLREREEDKDLEA
notes: Mical-3, human, whole predicted bMERB domain, residues 1841-1990 (isoform 1); printed elsewhere as 1841-1992; Limits are stated for the crystallised selenomethionine construct; also called Mical-3_(1841-1990); RBD of Mical-3
Question: What does the source list for B1?
Answer: stoichiometry N [1]: 2; binding result [2]: binds; binding result [3]: binds

B2: bMERB domain (Rab binding domain) of Mical-cL, residues 534-683 (domain or fragment, human, UniProt O94851 1796-1945, looked up)
chain: KQEELKRLYKAQAIQRQLEEVEERQRASEIQGVRLEKALRGEADSGTQDEAQLLQEWFKLVLEKNKLMRYESELLIMAQELELEDHQSRLEQKLREKMLKEESQKDEKDLNEEQEVFTELMQVIEQRDKLVDSLEEQRIREKAEDQHFES
notes: Mical C-terminal like protein (Mical-cL), human, bMERB domain, residues 534-683; Limits are stated for the crystallised construct; also called Mical-cL_(534-683); RBD of Mical-cL
Question: Which “stoichiometry N” value [1] does the source give for B2 here?
Answer: 2

Question: And the Kd [4]?
Answer: 233 nM

Question: And the Kd [5]?
Answer: 93 nM

Question: What about the Kd [6] of the same binder?
Answer: 253 nM

Question: What about the Kd [7] of the same binder?
Answer: 790 nM

Question: What about the Kd [8] of the same binder?
Answer: 94 nM

Question: What about the Kd [9] of the same binder?
Answer: 33 nM

B3: bMERB domain (Rab binding domain) of EHBP1 (domain or fragment)
chain: not shown
notes: EHBP1 1047-1231 (bMERB domain with CaaX box) is named for the prenylation and localisation experiments only; also called RBD of EHBP1
Question: For B3, which Kd [6] is on record?
Answer: 397 nM
